{"source": "patent US20230141962A1", "binders": {"B1": {"name": "scFv clone #26 (scFv)", "scFv": "QAVLTQAPSASGTLGQQVTISCSGTTSNIGRNTVNWYQHLPGTAPKLLIFVSNQRPSGVPDRFSGSKSGTSASLVISGLQSEDEADYYCGAWDDSLDGMLFGGGTKLTVLGSRGGGGSGGGGSGGGGSLEMAQVQLVQSGAEVKKPGASVKVSCKASGYTFTSYGISWVRQAPGQGLEWMGWISAYNGNTNYAQKLQGRVTMTTDTSTSTAYMELRSLRSDDTAVYYCARGYYGDLDPWGQGTLVTVSSTSGQAGQ"}}, "biological_target": "SARS-CoV-2 spike protein S1 subunit (WIV4) (SARS-CoV-2 (isolate 2019-nCoV, WIV4)), P0DTC2", "conditions": "remark: other sources report otherwise"}
{"binder": "B1", "values": [{"measurement": "IC50", "result": 1.33, "unit": "nM"}]}
